Data from the nanobody polyreactivity screen of Harvey et al. (2022).

Assay: yeast display, Sf9 membrane polyspecificity reagent, FACS + sequencing; frameworks hold sequencing errors
Outline: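 A nanobody's polyreactivity label depends on the gate it was sorted from. Yeast display cells were stained with 10% biotinylated, detergent-solubilized Sf9 membrane reagent for 1 hour at 4 °C, enriched on streptavidin microbeads and sorted by FACS. The low and high (top ~1%) gates were set on anti-HA fluorescence for expression and streptavidin fluorescence for reagent binding.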
For “QVQLVESGGGLVQAGGSLRLICAASGRTFRSNDMGWYRQAPGKERELVAANSLGTGTTYYADSVKGRFTISRDNAKNTVYLQMNSLKPEDTAVYYCHTDYRPIDTEYTSGYDYWGQGTQVTVSS”, the “polyreactivity (PSR sort gate)” value was “low polyreactivity”. With “QVQLVESGGGLVQAGGSLRLICAASGRTFRYYAMGWYRQAPGKERELVAAITTGSSTYYADSVKGRFTISRDNAKNTVYLQMNSLKPEDTAVYYCNVFQGTRYGYWGQGTQVTVSS” the “polyreactivity (PSR sort gate)” value was “low polyreactivity”. In the case of “QVQLVESGGGLVQAGGSLRLICAASGRTFSSYAMGWYRQAPGKERELVAALSRRGGSTYYADSVKGRFTISRDNAKNTVYLQMNSLNPEDTAVYYCAADVYKQYGYYYWGQGTQVTVSS”, the “polyreactivity (PSR sort gate)” value is reported as “high polyreactivity”. In the case of “QVQLVESGGGLVQAGGSLRLICAASGRTFSVYAMGWYRQAPGKERELVAAISWNGGNTYYADSVKGRFTISRDNAKNTVYLQMNSLKPEDTAVYYCAAERFLARRYYYWGQGTQVTVSS”, the “polyreactivity (PSR sort gate)” value is reported as “low polyreactivity”. With “QVQLVESGGGLVQAGGSLRLICAASGRTFVPYAMGWYRQAPGKERELVAAISQSGGRTYYTDSVKGRFTISRDNAKNTVYLQMNSLKPEDTAVYYCAKRYIYRYVWGGGDYWGQGTQVTVSS” the “polyreactivity (PSR sort gate)” value was “high polyreactivity”. With “QVQLVESGGGLVQAGGSLRLICAASGRTFYRYAMGWYRQAPGKDRELVATISRSGGSTYYADSVKGRFTISRDNAKNTVYLQINSLKPEDTAVYYCAADIPSYYWWRAYDYWGQGTQVTVSS” the “polyreactivity (PSR sort gate)” value was “low polyreactivity”. In the case of “QVQLVESGGGLVQAGGSLRLICAASGRTFYRYAMGWYRQAPGKERELVAAISRSGTTYYADSVKGRFTISRDNAKNTVYLQMNSLKPEDTAVYYCAAKPAGRQRGGDYWGQGTQVTVSS”, the “polyreactivity (PSR sort gate)” value is reported as “high polyreactivity”. For “QVQLVESGGGLVQAGGSLRLICAASGRTLGGNAMGWYRQAPGKERELVAAITNSASTYADSVKGRFTISRDNAKNTVYLQMNSLKPEDTAVYYCNAPDPSDQHGDYWGQGTQVTVSS”, the “polyreactivity (PSR sort gate)” value was “low polyreactivity”. In the case of “QVQLVESGGGLVQAGGSLRLICAASGRTLRRYAMGWYRQAPGKERELVAAISRSGSSTYADSVKGRFTISRDNAKNTVYLQMHSLKPEDTAVYYCNAYQPRYGYWGQGTQVTVSS”, the “polyreactivity (PSR sort gate)” value is reported as “high polyreactivity”. With “QVQLVESGGGLVQAGGSLRLICAASGRTYLWYTMGWYRQAPGKEREFVAAIWSGDSTYYADSVKGRFTISRDNAKNTVYLQMNSLKPEDTAVYYCAARRFRGSYYWGQGTQVTVSS” the “polyreactivity (PSR sort gate)” value was “high polyreactivity”. With “QVQLVESGGGLVQAGGSLRLICAASGSIFDSYTMGWYRQAPGKERELVAAISKNGGSTYYADSVKGRFTISRDNAKNTVYFQMNSLKPEDTAFYYCARSRSGYRYDYWGQGTQVTVSS” the “polyreactivity (PSR sort gate)” value was “high polyreactivity”. For “QVQLVESGGGLVQAGGSLRLICAASGSIFGYNAMGWYRQAPGKERELVAVINASGASTYYADSVKGRFTISRDNAKNTVYLQMNSLKPEDTAVYYCAKDPFPFPGGDYWGHGTQVTVSS”, the “polyreactivity (PSR sort gate)” value was “low polyreactivity”. With “QVQLVESGGGLVQAGGSLRLICAASGSIFIHNAMGWYRPAPGKERELVAGITTGGSTYYADSVKGRFTISRDNAKNTVYLQMNSLKPEDTAVYYCAVKRPVALTRGNWVTEARDYWGQGTQVTVSS” the “polyreactivity (PSR sort gate)” value was “low polyreactivity”. For “QVQLVESGGGLVQAGGSLRLICAASGSIFITYDMGWYRQAPGKERELVATISTTGGTTYYADSVKGRFTISRDNAKNTVYLQMNSLKPEDTAVYYCATAGPPRGYYAPITLDDYWGQGTQVTVSS”, the “polyreactivity (PSR sort gate)” value was “low polyreactivity”. For “QVQLVESGGGLVQAGGSLRLICAASGSIFPFNAMGWYRQAPGKERELVAAISSSGGSTSYADSVKGRFTISRDNAKNTVYLQMNSLKPEDTAVYYCNVRYRSAGSRYGYWGQGTQVTVSS”, the “polyreactivity (PSR sort gate)” value was “low polyreactivity”. In the case of “QVQLVESGGGLVQAGGSLRLICAASGSIFRYYAMGWYRQAPGKERELVADINGSGGSTYYADSVKGRFTISRDNAKNTVYLQMNSLKPEDTAVYYCATAYGWRRKYYGYDYCGQGTQVTVSS”, the “polyreactivity (PSR sort gate)” value is reported as “high polyreactivity”. In the case of “QVQLVESGGGLVQAGGSLRLICAASGSIFSLYAMGWYRQAPGKQREFVASISRSGGITYYADSVKGRFTISRDNEKNTVYLQMISLKPEDTAVYYCAAVGWVSYRRYDYWGQGTQVTVSS”, the “polyreactivity (PSR sort gate)” value is reported as “high polyreactivity”. With “QVQLVESGGGLVQAGGSLRLICAASGSIFTPNALGWYRPAPGKERELVAAISSSSDRTYYADSVKGRFTISRDNAKNSVFLLMNSLKPEDTAVYYCAAYAQKRYYWGQGTQVTVSS” the “polyreactivity (PSR sort gate)” value was “high polyreactivity”. With “QVQLVESGGGLVQAGGSLRLICAASGSIFVGNAMCWYSQATGKERELVATITSGGSTYYADSVKGRFTISRDNAMNTVYLQMNSLKPEDTSVYNCAADYEFSKFDYVYWGQGTQVTVSS” the “polyreactivity (PSR sort gate)” value was “low polyreactivity”. For “QVQLVESGGGLVQAGGSLRLICAASGSIFVYNAMGSYRQAPAKERELVAAISQRGGSTYYADSVKGRFTISRDNAKNTVYLQMKSLKPEDTAVYYCAAGPGDSGDDYWGQGTQVTVSS”, the “polyreactivity (PSR sort gate)” value was “low polyreactivity”. In the case of “QVQLVESGGGLVQAGGSLRLICAASGSIFYANAMGWYRQAPGKEREFVAANSSSGGGTSYADSVKGRFTISRDNAKNTVYLQMNSLKPEDTAVYYCAARVTYGGIPARQIYDYWGQGTQVTVSS”, the “polyreactivity (PSR sort gate)” value is reported as “low polyreactivity”. In the case of “QVQLVESGGGLVQAGGSLRLICAASGSIFYVNAMGWYRQEPGKERELVAGISRSGSSTYYADSVKGRFTISRDNAKNTVYLLMNSLKPEDTAVYYCNRVYQGRGWHDYWGQGTQVTVSS”, the “polyreactivity (PSR sort gate)” value is reported as “high polyreactivity”. In the case of “QVQLVESGGGLVQAGGSLRLICAASGSILYYYVMGWYRQAPGKERQLVAAITSGGSTYYADSVKGRFTISRDNAKNNVYLQMNSLKPEDTAVYYCAVRPRRQYSPSRWGTGCYWGQGTQVTVSS”, the “polyreactivity (PSR sort gate)” value is reported as “high polyreactivity”. In the case of “QVQLVESGGGLVQAGGSLRLICAASGSTFDSYAMGWYRQAPGKERELVAAISRSGGRTYYADSVKGRFTISRDNAKNTVYLQMNSLKPEDTAGYYCAAPVKVGHSLSGGDYWGQGTQVTVSS”, the “polyreactivity (PSR sort gate)” value is reported as “high polyreactivity”. In the case of “QVQLVESGGGLVQAGGSLRLICAASGSTFEHYAMGWYRPAPGKERELVAAITRRGGSTYYADSVKGRFTISRDNAKNTVYLQMNSLKPEDTAVYDCNTDLRYSYYLPGYDYWGQGPQVTVSS”, the “polyreactivity (PSR sort gate)” value is reported as “high polyreactivity”. With “QVQLVESGGGLVQAGGSLRLICAASGSTFEQYAMGWYRQAPGKERELVAAINRGGSTYYADSVKGRFTISRDNAKNTVYLQMNSLKPEDTAVYYCAVYAFVRYRSRYGYWGQGTQVTVSS” the “polyreactivity (PSR sort gate)” value was “high polyreactivity”. For “QVQLVESGGGLVQAGGSLRLICAASGSTFGPYAMGWYRQAPGKERELVADITVSDGSTYYADSVKGRFTISRDNAKNTVYLQMNSLNPEDTAVYYCAAEIYYSFGYWGQGTQVTVSS”, the “polyreactivity (PSR sort gate)” value was “low polyreactivity”. For “QVQLVESGGGLVQAGGSLRLICAASGSTFGPYSMGWYRQAPGKEMELVAVITTSGSTNYADSVKGRFTISRDNAKNTVYLQMNSLKPEDTAVYYCAARYRYYGTNRYYYWGQGTQVTVSS”, the “polyreactivity (PSR sort gate)” value was “high polyreactivity”. With “QVQLVESGGGLVQAGGSLRLICAASGSTFGVYAMGWYRQAPGKEREMVAAIRWSSGSTYYADSVKGRFTISRDNAKNTVYLQMNSLKPEDTAVYYCAKTRGIYNIRFGYWGQGTQVTVSS” the “polyreactivity (PSR sort gate)” value was “high polyreactivity”. With “QVQLVESGGGLVQAGGSLRLICAASGSTFIINAMGWYRQAPGKERELVARITQRGTSTFYADSVKGRFTISRDNAKNTVYLQMNSLKPDDTAVYYCAGRGSNSLGNKYDYWGQGTQVTVSS” the “polyreactivity (PSR sort gate)” value was “high polyreactivity”. For “QVQLVESGGGLVQAGGSLRLICAASGSTFIINAMGWYRQAPGKERELVARITQRGTSTFYADSVKGRFTISRDNAKNTVYLQMNSLKPEDTAVYYCAARGSKSLGNKYDYWGQGTQVTVSS”, the “polyreactivity (PSR sort gate)” value was “high polyreactivity”. With “QVQLVESGGGLVQAGGSLRLICAASGSTFNNNAMGWFRQAPGKERELVAAISYTGGSTYYADSVKGRFTISRDNAKNNVYLQMNSLKPEDTAVYYCAADYPHLGGYRYDYWGQGTQVTVSS” the “polyreactivity (PSR sort gate)” value was “high polyreactivity”. In the case of “QVQLVESGGGLVQAGGSLRLICAASGSTFPTYAMGWYRQAPGKERELVAAIDSSGGNTYYADSVKGRFTISRDNAKNTVYLQMNSLKPEDTEVYYCARESVTYFWYYTPEVDYWGQGTQVTVSS”, the “polyreactivity (PSR sort gate)” value is reported as “low polyreactivity”. For “QVQLVESGGGLVQAGGSLRLICAASGSTFQLYAMGWYRQAPGKERDLFAAISGIGDSTYYADSVKGRFTISRDNAKITVYLQMNSLKPEDTAVYYCAREFSDGLSGKFDYWGQRTQVTVSS”, the “polyreactivity (PSR sort gate)” value was “low polyreactivity”. In the case of “QVQLVESGGGLVQAGGSLRLICAASGSTFRNYAMGWYRQAPGKDRELVAAISRGDGTYYADSVKWRFTISRDNAKNTVYLLMNSLKPEYSAVYYCAAAYRGRQNPMGFWGQGTQVTVSS”, the “polyreactivity (PSR sort gate)” value is reported as “high polyreactivity”. In the case of “QVQLVESGGGLVQAGGSLRLICAASGSTFRYYAMGWYRQAPGKEREFVAAITKGGSRTSYADSVKGRFTISRDNAKNTVYLQMNSLKPEDTAVYYCATAYYGGASQRNYGYWGQGTQVTVSS”, the “polyreactivity (PSR sort gate)” value is reported as “high polyreactivity”. With “QVQLVESGGGLVQAGGSLRLICAASGSTFVSNAMGWYRQAPGKERELVAAITVSGGRTYYADSVKGRFTISRDNAKNTVYLQMNSLKPEDTAVYYCAAQIYGKYDYWGQGTQVTVSS” the “polyreactivity (PSR sort gate)” value was “low polyreactivity”. With “QVQLVESGGGLVQAGGSLRLICAASGSTFWGYTMGWYRQAPGKERELVAAITRSSGRTYYADSVKGRFTISRDNAMNTVYLQFHSLKPEDTAVYYWNADAVGRRTWSPYDYWGQGSQVTVSS” the “polyreactivity (PSR sort gate)” value was “high polyreactivity”. In the case of “QVQLVESGGGLVQAGGSLRLICAASGSTFYKYNMGWYRQAPGKERELVAAISGSGTTTYYADTVKGRFTISRDNAKNTVYLQMNSLKPEDTAVYYCAARRFSPGSSGHGYWGQGTQVTVSS”, the “polyreactivity (PSR sort gate)” value is reported as “high polyreactivity”. With “QVQLVESGGGLVQAGGSLRLICAASGSTFYPNAMGWYRPAPGKERELVAAITSAGSTYYADSVKGRFTISRDNAKNTVYLQMNSLKPEDTAVYYCAKRRASRYDWGQGTQVTVSS” the “polyreactivity (PSR sort gate)” value was “high polyreactivity”. With “QVQLVESGGGLVQAGGSLRLICAASGSTFYRYAMGWYRQAPGKERELVAAISSSGGSTYYADSVKGRFTISRDIAKNTVYLQMNSLKPEDTAVYYCNRYGSGHSFIYDYWGQGTQVTLSS” the “polyreactivity (PSR sort gate)” value was “high polyreactivity”. In the case of “QVQLVESGGGLVQAGGSLRLICAASGSTFYYNAMGWYRQAPGKERELVAGITYRGGSTYYADSVKGRFTISRDNAKNTVYLQMNSLKPEDTAVYYCAARHYIWSQYYTRYDYWGQGTQVTVSS”, the “polyreactivity (PSR sort gate)” value is reported as “high polyreactivity”. With “QVQLVESGGGLVQAGGSLRLICAASGSTIFENVMGWYRQAPGKEREFVAAINTSGGSTYYADSVKGRFTISRDNAKNTVYLQMNILKPEDTAVYYCARDSYWEMDYWGQGTQVTVSS” the “polyreactivity (PSR sort gate)” value was “low polyreactivity”.
